The target in assay [1] is purine nucleoside phosphorylase from Kluyveromyces lactis, 6xHis-tagged, as used in analytical gel filtration (Kluyveromyces lactis). Nature of the assay: SEC; analytical size exclusion chromatography on a Superdex 200 Increase 10/300 GL column, calibrated with molecular weight marker proteins; single predominant peak at 12.5 mL. (In gel filtration, larger molecules generally elute earlier.)

The target in assay [2] is purine nucleoside phosphorylase from Kluyveromyces lactis, C-terminal 6xHis-tag variant (Kluyveromyces lactis). Briefly: crystal structure; C-terminal 6xHis-tag variant, 8 mg/mL in 25 mM Tris-HCl, 100 mM NaCl, pH 8.0, mixed with 0.1 M sodium acetate trihydrate pH 4.6, 8% PEG4000; space group P6(1), 1.97 Å, three molecules in the asymmetric unit.

As a reminder, the stoichiometry N is the number of molecules, sites or subunits per partner or assembly. On to “purine nucleoside phosphorylase from Kluyveromyces lactis, 6xHis-tagged, as used in analytical gel filtration (enzyme)”, for which, in assay [1], the stoichiometry N came out at 3.
In assay [2], “purine nucleoside phosphorylase from Kluyveromyces lactis, C-terminal 6xHis-tag variant (enzyme)” displayed a stoichiometry N of 3.

Values taken from PMC5074518.
